Earlier results, collected in paper PMC10586765.

Molecular target: UBL4A (Homo sapiens) (UniProt P11441)
Test: surface plasmon resonance

UniProt P11441, sequence (P11441 whole entry): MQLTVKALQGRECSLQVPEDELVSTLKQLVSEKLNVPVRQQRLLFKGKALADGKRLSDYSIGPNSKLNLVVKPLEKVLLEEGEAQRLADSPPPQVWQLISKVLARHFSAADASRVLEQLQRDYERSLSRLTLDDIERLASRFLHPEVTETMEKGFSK

BAG6 (from UniProt P46379)
Kd: 2.2 nM
